Experimental findings from article PMC12578645 (Nature Microbiology, 2025) are described below.

Data set [1] deals with the molecule itself. The data set is described as follows: cryo-EM structure.
The target in data set [2] is T1, gB-Ecto.H516P.L531E.DS (Human alphaherpesvirus 1, strain KOS, H516P | L531E | A240C | E607C).
T1 construct: also called gB-Ecto.H516P.L531E.A240C+E607C (DS); gB-Ecto.516P.531E.DS; not shown: 8xHis-Tag, C-terminal, kept
The data set can be described thus: SPR. To be noted: both partners purified.

The target of data set [3] is T2, gB-Ecto.H516P.L531E (Human alphaherpesvirus 1, strain KOS, H516P | L531E).
T2 construct: also called gB-Ecto.516P.531E; prefusion gB; not shown: 8xHis-Tag, C-terminal, kept
The data set can be described thus: SPR. To be noted: both partners purified.

In data set [4] the target is T3, HSV-1 gB on infectious HSV-1 virions (Human alphaherpesvirus 1 (HSV-1), …, UniProt P06437).
T3 construct: also called authentic live virus; source: HSV-1 MacIntrye (VR-539; ATCC) propagated in Vero cells, virions purified by ultracentrifugation with a 25% sucrose cushion
The data set can be described thus: ELISA; virion-binding ELISA: plates coated with purified authentic live HSV-1 at 50,000 infectious particles per well; monoclonal antibodies in fivefold dilutions from 20 µg/ml. The settings on record: one partner purified. For orientation: In an ELISA, binding on a coated surface is turned into a signal by an enzyme label.

B1: gB-Ecto.H516P.L531E (HSV-1 glycoprotein B ectodomain stabilized in the prefusion conformation) (domain or fragment)
chain: not shown
modifications: N-linked glycans (densities seen at 141, 398, 430 and 674)
notes: also called H516P + L531E ectodomain; prefusion gB
As for B1, the “stoichiometry N” value in data set [1] was 3.

B2: WS.HSV-1.24 Fab (Fab, V domains shown)
VH: QVQLKESGPGLVAPSQSLSITCTVSGFSLTTYGVTWVRQPPGKGLEWLGVIWGDGSTNYHSDLISRLSITKDNSKSQVFLKLSSLQADDTATYYCVSYYGYFDHWGQGTTLTVSS
VL: DIQMTQSPSSLSASLGERVSLTCRASQDIGSSLNWLQQKPDGTIKRLIYATSSLDSGVPKRFSGSRSGSDYSLTISSLESEDFVDYYCLQYASSPPTFGGGTKLEIK
notes: also called WS.HSV-24; source: IgG expressed in Expi293F and purified; reduced and alkylated, digested with immobilized papain; Fab purified (protein G negative selection, Superdex 75 gel filtration)
For B2, the Kd in data set [2] came out at 1.86 nM; in data set [3], 3.2 nM.

B3: WS.HSV-1.24 IgG (antibody, V domains shown)
VH: B2 VH
VL: B2 VL
notes: also called WS.HSV-24; source: Expi293F, purified (variable genes cloned into pVRC8400 with species-specific constant regions)
As to B3, the binding result in data set [4] was “binds”.

One may read the stoichiometry N as a count of units in the complex or per binding partner. The Kd is the concentration at which binding is half-saturated.
